Laboratory results reported in paper PMC6461108 (2019).

Target: S-peptide S-peptide (Bos taurus, UniProt P61823)
Experiment: ITC

Chain of S-peptide S-peptide (P61823 27-46): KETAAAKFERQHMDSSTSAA

B1: RNase S-protein S-protein (protein)
chain: SSSNYCNQMMKSRNLTKDRCKPVNTFVHESLADVQAVCSQKNVACKNGQTNCYQSYSTMSITDCRETGSSKYPNCAYKTTQANKHIIVACEGNPYVPVHFDASV
  Kd: 130 nM
